Here are results for one sequence from article PMC9083066.

This data set relates to T1, FabT (Enterococcus faecalis), ORF:b010fabc.
T1 sequence: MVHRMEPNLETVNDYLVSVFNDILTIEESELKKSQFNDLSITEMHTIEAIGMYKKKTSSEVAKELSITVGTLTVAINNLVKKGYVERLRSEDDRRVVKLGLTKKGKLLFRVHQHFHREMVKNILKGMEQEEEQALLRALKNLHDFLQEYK
Description: EMSA. Particulars: 10 nM DNA, 0.1 uM FabT, 0-10 uM acyl-ACP, 10 mM Tris-HCl pH 7.0, 50 mM NaCl, 1 mM EDTA, 1 mM DTT, 10% glycerol, room temperature, 30 min; 6% native PAGE. (In EMSA bound probe runs differently from free probe, usually more slowly.)

On to “GTCAGGATCCGTCGACATCTGTATTCACCTCCACTGCTTTTGAAAAAAGGTTCTTTCTTTTACTAAAACGCTAAGATACATTGTACTCACAATTTGGGTATTTGTCCATCTTTTTTTCATTTGAGTAACAAACTGATGTCAAGACAATTGCAAATTACTGCAGAATTCTGAC (double strand) [E. faecalis acpB promoter]”, for which the binding entry is “no binding”.
